In patent US20170190753A1 (LABORATOIRE FRANCAIS DU FRACTIONNEMENT ET DES …, published 2017):

B1: pCEP4-1NT4-8CT20 (other)
chain: EDCNELPPRRNTEILTGSWSDQTYPEGTQAIYKCRPGYRSLGNVIMVCRKGEWVALNPLRKCQKRPCGHPGDTPFGTFTLTGGNVFEYGVKAVYTCNEGYQLLGEINYRECDTDGWTNDIPICEVVKCLPVTAPENGKIVSSAMEPDREYHFGQAVRFVCNSGYKIEGDEEMHCSDDGFWSKEKPKCVEISCKSPDVINGSPISQKIIYKENERFQYKCNMGYEYSERGDAVCTESGWRPLPSCEEKSGASGCSKSSIDIENGFISESQYTYALKEKAKYQCKLGYVTADGETSGSITCGKDGWSAQPTCIKSCDIPVFMNARTKNDFTWFKLNDTLDYECHDGYESNTGSTTGSIVCGYNGWSDLPICYERECELPKIDVHLVPDRKKDQYKVGEVLKFSCKPGFTIVGPNSVQCYHFGLSPDLPICKEQVQSCGPPPELLNGNVKEKTKEEYGHSEVVEYYCNPRFLMKGPNKIQCVDGEWTTLPVCIVEESTCGDIPELEHGWAQLSSPPYYYGDSVEFNCSESFTMIGHRSITCIHGVWTQLPQCVAIDKLKKCKSSNLIILEEHLKNKKEFDHNSNIRYRCRGKEGWIHTVCINGRWDPEVNCSMAQIQLCPPPPQIPNSHNMTTTLNYRDGEKVSVLCQENYLIQEGEEITCKDGRWQSIPLCVEKIPCSQPPQIEHGTINSSRSSQESYAHGTKLSYTCEGGFRISEENETTCYMGKWSSPPQCEGLPCKSPPEISHGVVAHMSDSYQYGEEVTYKCFEGFGIDGPAIAKCLGEKWSHPPSCIKTDCLSLPSFENAIPMGEKKDVYKAGEQVTYTCATYYKMDGASNVTCINSRWTGRPTCRDTSCVNPPTVQNAYIVSRQMSKYPSGERVRYQCRSPYEMFGDEEVMCLNGNWTEPPQCKDSTGKCGPPPPIDNGDITSFPLSVYAPASSVEYQCQNLYQLEGNKRITCRNGQWSEPPKCLHPCVISREIMENYNIALRWTAKQKLYSRTGESVEFVCKRGYRLSSRSHTLRTTCWDGKLEYPTCAKRGGSGHHHHHH
B2: pCEP4-1NT9-19CT20 (other)
chain: EDCNELPPRRNTEILTGSWSDQTYPEGTQAIYKCRPGYRSLGNVIMVCRKGEWVALNPLRKCQKRPCGHPGDTPFGTFTLTGGNVFEYGVKAVYTCNEGYQLLGEINYRECDTDGWTNDIPICEVVKCLPVTAPENGKIVSSAMEPDREYHFGQAVRFVCNSGYKIEGDEEMHCSDDGFWSKEKPKCVEISCKSPDVINGSPISQKIIYKENERFQYKCNMGYEYSERGDAVCTESGWRPLPSCEEKSCDNPYIPNGDYSPLRIKHRTGDEITYQCRNGFYPATRGNTAKCTSTGWIPAPRCTLKPCDYPDIKHGGLYHENMRRPYFPVAVGKYYSYYCDEHFETPSGSYWDHIHCTQDGWSPAVPCLRKCYFPYLENGYNQNYGRKFVQGKSIDVACHPGYALPKAQTTVTCMENGWSPTPRCIRVKTCSKSSIDIENGFISESQYTYALKEKAKYQCKLGYVTADGETSGSITCGKDGWSAQPTCIKSCDIPVFMNARTKNDFTWFKLNDTLDYECHDGYESNTGSTTGSIVCGYNGWSDLPICYEREGASGCGPPPPIDNGDITSFPLSVYAPASSVEYQCQNLYQLEGNKRITCRNGQWSEPPKCLHPCVISREIMENYNIALRWTAKQKLYSRTGESVEFVCKRGYRLSSRSHTLRTTCWDGKLEYPTCAKRGGSGHHHHHH
B3: pCEP4-1NT9-13CT20 (other)
chain: EDCNELPPRRNTEILTGSWSDQTYPEGTQAIYKCRPGYRSLGNVIMVCRKGEWVALNPLRKCQKRPCGHPGDTPFGTFTLTGGNVFEYGVKAVYTCNEGYQLLGEINYRECDTDGWTNDIPICEVVKCLPVTAPENGKIVSSAMEPDREYHFGQAVRFVCNSGYKIEGDEEMHCSDDGFWSKEKPKCVEISCKSPDVINGSPISQKIIYKENERFQYKCNMGYEYSERGDAVCTESGWRPLPSCEEKSCDNPYIPNGDYSPLRIKHRTGDEITYQCRNGFYPATRGNTAKCTSTGWIPAPRCTLKPCDYPDIKHGGLYHENMRRPYFPVAVGKYYSYYCDEHFETPSGSYWDHIHCTQDGWSPAVPCLRKCYFPYLENGYNQNYGRKFVQGKSIDVACHPGYALPKAQTTVTCMENGWSPTPRCIRVKTCSKSSIDIENGFISESQYTYALKEKAKYQCKLGYVTADGETSGSITCGKDGWSAQPTCIKSCDIPVFMNARTKNDFTWFKLNDTLDYECHDGYESNTGSTTGSIVCGYNGWSDLPICYEREGASGCKSSNLIILEEHLKNKKEFDHNSNIRYRCRGKEGWIHTVCINGRWDPEVNCSMAQIQLCPPPPQIPNSHNMTTTLNYRDGEKVSVLCQENYLIQEGEEITCKDGRWQSIPLCVEKIPCSQPPQIEHGTINSSRSSQESYAHGTKLSYTCEGGFRISEENETTCYMGKWSSPPQCEGLPCKSPPEISHGVVAHMSDSYQYGEEVTYKCFEGFGIDGPAIAKCLGEKWSHPPSCIKTDCLSLPSFENAIPMGEKKDVYKAGEQVTYTCATYYKMDGASNVTCINSRWTGRPTCRDTSCVNPPTVQNAYIVSRQMSKYPSGERVRYQCRSPYEMFGDEEVMCLNGNWTEPPQCKDSTGKCGPPPPIDNGDITSFPLSVYAPASSVEYQCQNLYQLEGNKRITCRNGQWSEPPKCLHPCVISREIMENYNIALRWTAKQKLYSRTGESVEFVCKRGYRLSSRSHTLRTTCWDGKLEYPTCAKRGGSGHHHHHH
B4: pCEP4-1NT4-10CT20 (other)
chain: EDCNELPPRRNTEILTGSWSDQTYPEGTQAIYKCRPGYRSLGNVIMVCRKGEWVALNPLRKCQKRPCGHPGDTPFGTFTLTGGNVFEYGVKAVYTCNEGYQLLGEINYRECDTDGWTNDIPICEVVKCLPVTAPENGKIVSSAMEPDREYHFGQAVRFVCNSGYKIEGDEEMHCSDDGFWSKEKPKCVEISCKSPDVINGSPISQKIIYKENERFQYKCNMGYEYSERGDAVCTESGWRPLPSCEEKSGASGCELPKIDVHLVPDRKKDQYKVGEVLKFSCKPGFTIVGPNSVQCYHFGLSPDLPICKEQVQSCGPPPELLNGNVKEKTKEEYGHSEVVEYYCNPRFLMKGPNKIQCVDGEWTTLPVCIVEESTCGDIPELEHGWAQLSSPPYYYGDSVEFNCSESFTMIGHRSITCIHGVWTQLPQCVAIDKLKKCKSSNLIILEEHLKNKKEFDHNSNIRYRCRGKEGWIHTVCINGRWDPEVNCSMAQIQLCPPPPQIPNSHNMTTTLNYRDGEKVSVLCQENYLIQEGEEITCKDGRWQSIPLCVEKIPCSQPPQIEHGTINSSRSSQESYAHGTKLSYTCEGGFRISEENETTCYMGKWSSPPQCEGLPCKSPPEISHGVVAHMSDSYQYGEEVTYKCFEGFGIDGPAIAKCLGEKWSHPPSCIKTDCLSLPSFENAIPMGEKKDVYKAGEQVTYTCATYYKMDGASNVTCINSRWTGRPTCRDTSCVNPPTVQNAYIVSRQMSKYPSGERVRYQCRSPYEMFGDEEVMCLNGNWTEPPQCKDSTGKCGPPPPIDNGDITSFPLSVYAPASSVEYQCQNLYQLEGNKRITCRNGQWSEPPKCLHPCVISREIMENYNIALRWTAKQKLYSRTGESVEFVCKRGYRLSSRSHTLRTTCWDGKLEYPTCAKRGGSGHHHHHH
B5: pCEP4-1NT13-14CT20 (other)
chain: EDCNELPPRRNTEILTGSWSDQTYPEGTQAIYKCRPGYRSLGNVIMVCRKGEWVALNPLRKCQKRPCGHPGDTPFGTFTLTGGNVFEYGVKAVYTCNEGYQLLGEINYRECDTDGWTNDIPICEVVKCLPVTAPENGKIVSSAMEPDREYHFGQAVRFVCNSGYKIEGDEEMHCSDDGFWSKEKPKCVEISCKSPDVINGSPISQKIIYKENERFQYKCNMGYEYSERGDAVCTESGWRPLPSCEEKSCDNPYIPNGDYSPLRIKHRTGDEITYQCRNGFYPATRGNTAKCTSTGWIPAPRCTLKPCDYPDIKHGGLYHENMRRPYFPVAVGKYYSYYCDEHFETPSGSYWDHIHCTQDGWSPAVPCLRKCYFPYLENGYNQNHGRKFVQGKSIDVACHPGYALPKAQTTVTCMENGWSPTPRCIRVKTCSKSSIDIENGFISESQYTYALKEKAKYQCKLGYVTADGETSGSITCGKDGWSAQPTCIKSCDIPVFMNARTKNDFTWFKLNDTLDYECHDGYESNTGSTTGSIVCGYNGWSDLPICYERECELPKIDVHLVPDRKKDQYKVGEVLKFSCKPGFTIVGPNSVQCYHFGLSPDLPICKEQVQSCGPPPELLNGNVKEKTKEEYGHSEVVEYYCNPRFLMKGPNKIQCVDGEWTTLPVCIVEESTCGDIPELEHGWAQLSSPPYYYGDSVEFNCSESFTMIGHRSITCIHGVWTQLPQCVAIDKLKKCKSSNLIILEEHLKNKKEFDHNSNIRYRCRGKEGWIHTVCINGRWDPEVNCSMAQIQLGASGCPPPPQIPNSHNMTTTLNYRDGEKVSVLCQENYLIQEGEEITCKDGRWQSIPLCVEKIPCSQPPQIEHGTINSSRSSQESYAHGTKLSYTCEGGFRISEENETTCYMGKWSSPPQCEGLPCKSPPEISHGVVAHMSDSYQYGEEVTYKCFEGFGIDGPAIAKCLGEKWSHPPSCIKTDCLSLPSFENAIPMGEKKDVYKAGEQVTYTCATYYKMDGASNVTCINSRWTGRPTCRDTSCVNPPTVQNAYIVSRQMSKYPSGERVRYQCRSPYEMFGDEEVMCLNGNWTEPPQCKDSTGKCGPPPPIDNGDITSFPLSVYAPASSVEYQCQNLYQLEGNKRITCRNGQWSEPPKCLHPCVISREIMENYNIALRWTAKQKLYSRTGESVEFVCKRGYRLSSRSHTLRTTCWDGKLEYPTCAKRGGSGHHHHHH
B6: pCEP4-1NT7-15CT20 (other)
chain: EDCNELPPRRNTEILTGSWSDQTYPEGTQAIYKCRPGYRSLGNVIMVCRKGEWVALNPLRKCQKRPCGHPGDTPFGTFTLTGGNVFEYGVKAVYTCNEGYQLLGEINYRECDTDGWTNDIPICEVVKCLPVTAPENGKIVSSAMEPDREYHFGQAVRFVCNSGYKIEGDEEMHCSDDGFWSKEKPKCVEISCKSPDVINGSPISQKIIYKENERFQYKCNMGYEYSERGDAVCTESGWRPLPSCEEKSCDNPYIPNGDYSPLRIKHRTGDEITYQCRNGFYPATRGNTAKCTSTGWIPAPRCTLKPCDYPDIKHGGLYHENMRRPYFPVAVGKYYSYYCDEHFETPSGSYWDHIHCTQDGWSPAVPCLRKCYFPYLENGYNQNYGRKFVQGKSIDVACHPGYALPKAQTTVTCMENGWSPTPRCIRVKTGASGCSQPPQIEHGTINSSRSSQESYAHGTKLSYTCEGGFRISEENETTCYMGKWSSPPQCEGLPCKSPPEISHGVVAHMSDSYQYGEEVTYKCFEGFGIDGPAIAKCLGEKWSHPPSCIKTDCLSLPSFENAIPMGEKKDVYKAGEQVTYTCATYYKMDGASNVTCINSRWTGRPTCRDTSCVNPPTVQNAYIVSRQMSKYPSGERVRYQCRSPYEMFGDEEVMCLNGNWTEPPQCKDSTGKCGPPPPIDNGDITSFPLSVYAPASSVEYQCQNLYQLEGNKRITCRNGQWSEPPKCLHPCVISREIMENYNIALRWTAKQKLYSRTGESVEFVCKRGYRLSSRSHTLRTTCWDGKLEYPTCAKRGGSGHHHHHH

These binders were tested against C3 convertase complex (UniProt P01024 23-1663; P00751 260-764) (assay: cell-based or functional assay).
C3 convertase complex, sequence (P01024 23-1663, chain 1 of 2): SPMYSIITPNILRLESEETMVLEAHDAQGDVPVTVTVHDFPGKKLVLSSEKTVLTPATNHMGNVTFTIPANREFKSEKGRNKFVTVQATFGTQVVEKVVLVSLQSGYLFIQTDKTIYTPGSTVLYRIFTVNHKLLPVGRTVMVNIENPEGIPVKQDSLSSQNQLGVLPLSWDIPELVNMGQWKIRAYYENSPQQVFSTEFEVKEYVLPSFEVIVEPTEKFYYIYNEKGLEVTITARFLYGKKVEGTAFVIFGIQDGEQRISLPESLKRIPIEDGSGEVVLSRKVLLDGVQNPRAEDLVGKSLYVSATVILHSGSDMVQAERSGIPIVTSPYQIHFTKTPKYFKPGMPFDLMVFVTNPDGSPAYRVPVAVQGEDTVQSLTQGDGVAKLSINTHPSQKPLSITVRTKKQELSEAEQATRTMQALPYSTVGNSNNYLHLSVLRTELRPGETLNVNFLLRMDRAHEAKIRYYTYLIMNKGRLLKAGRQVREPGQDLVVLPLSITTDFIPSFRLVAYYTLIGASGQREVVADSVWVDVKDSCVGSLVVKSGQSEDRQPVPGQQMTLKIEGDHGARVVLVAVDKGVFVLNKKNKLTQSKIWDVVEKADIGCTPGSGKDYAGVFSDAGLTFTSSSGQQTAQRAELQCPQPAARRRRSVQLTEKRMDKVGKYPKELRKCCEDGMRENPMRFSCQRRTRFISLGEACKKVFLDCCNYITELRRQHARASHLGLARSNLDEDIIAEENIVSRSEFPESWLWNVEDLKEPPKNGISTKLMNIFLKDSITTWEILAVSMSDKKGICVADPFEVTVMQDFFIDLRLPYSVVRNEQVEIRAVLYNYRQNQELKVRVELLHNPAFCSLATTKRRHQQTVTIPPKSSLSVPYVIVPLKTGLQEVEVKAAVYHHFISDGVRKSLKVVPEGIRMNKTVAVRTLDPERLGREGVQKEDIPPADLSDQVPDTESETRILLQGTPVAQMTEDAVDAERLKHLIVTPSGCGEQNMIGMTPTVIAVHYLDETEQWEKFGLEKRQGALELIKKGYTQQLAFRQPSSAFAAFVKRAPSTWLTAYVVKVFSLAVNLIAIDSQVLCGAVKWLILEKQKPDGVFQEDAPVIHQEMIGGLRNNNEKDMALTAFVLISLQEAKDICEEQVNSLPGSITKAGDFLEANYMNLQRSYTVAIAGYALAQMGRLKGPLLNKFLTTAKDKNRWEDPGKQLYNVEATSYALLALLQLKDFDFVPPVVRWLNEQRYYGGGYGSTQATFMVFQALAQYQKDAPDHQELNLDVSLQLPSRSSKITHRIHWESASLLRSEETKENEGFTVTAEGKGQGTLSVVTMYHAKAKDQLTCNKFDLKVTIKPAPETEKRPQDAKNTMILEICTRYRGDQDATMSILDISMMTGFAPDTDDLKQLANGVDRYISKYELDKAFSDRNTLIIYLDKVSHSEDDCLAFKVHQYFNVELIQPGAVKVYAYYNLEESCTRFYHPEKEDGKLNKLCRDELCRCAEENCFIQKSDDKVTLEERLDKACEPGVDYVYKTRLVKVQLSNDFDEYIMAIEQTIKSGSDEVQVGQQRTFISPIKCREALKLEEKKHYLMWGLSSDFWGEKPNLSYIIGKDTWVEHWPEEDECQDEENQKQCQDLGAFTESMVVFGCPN
C3 convertase complex, sequence (P00751 260-764, chain 2 of 2): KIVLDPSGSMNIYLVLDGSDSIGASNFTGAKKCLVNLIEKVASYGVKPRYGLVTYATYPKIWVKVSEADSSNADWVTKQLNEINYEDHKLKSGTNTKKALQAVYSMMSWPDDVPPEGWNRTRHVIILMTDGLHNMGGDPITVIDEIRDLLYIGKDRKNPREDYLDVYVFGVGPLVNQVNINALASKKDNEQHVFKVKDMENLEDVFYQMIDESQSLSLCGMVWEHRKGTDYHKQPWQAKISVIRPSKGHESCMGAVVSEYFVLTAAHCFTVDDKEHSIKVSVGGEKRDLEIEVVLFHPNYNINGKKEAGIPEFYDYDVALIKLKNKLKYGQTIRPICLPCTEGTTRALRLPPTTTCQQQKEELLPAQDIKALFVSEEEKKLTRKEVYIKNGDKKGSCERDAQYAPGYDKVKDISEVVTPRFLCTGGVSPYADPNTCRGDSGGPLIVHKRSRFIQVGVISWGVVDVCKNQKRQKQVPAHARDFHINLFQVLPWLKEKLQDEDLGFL
Wherever C3 convertase activity % of the control is given: test concentration or dose not given here.

Point of comparison: B5, “C3 convertase activity % of the control” value 45 % of the control. Against it:
- B1 — lower, 42 % of the control
- B2 — higher, 49 % of the control
- B3 — higher, 56 % of the control
- B4 — lower, 38 % of the control
- B6 — higher, 56 % of the control

Point of comparison: B3, “C3 convertase activity IC50” value 0.166 µg/mL. Against it:
- B1 — within 1.5-fold, 0.228 µg/mL
- B2 — within 1.5-fold, 0.217 µg/mL
- B4 — within 1.5-fold, 0.244 µg/mL
- B5 — 4.7-fold higher, 0.776 µg/mL
- B6 — 3.8-fold higher, 0.639 µg/mL
